Results reported in the RNAGym collection of RNA variant scans (doi:10.7554/elife.90254).

B1: OR4K15 (parent)
chain: GUUAACGGUCAUAGGCCAUGGAAACUAGGAGCACCAUUUCGCUGCCAGUGAAGAAAUGAACAAAGAAAAUCUGGGCCAGGCAGGCAUCAAAAGAAAUAGUCUUGCGCUCAACCAGAAAGUCUGUAAUCAUUUUAAGGGUA

Variants of: B1
Assay: self-cleavage, relative activity (ratio to wild type); higher = more cleavage; in vitro, sequencing; the parent is a self-cleaving ribozyme
Work on A22U G83A yielded a self-cleavage of 0.93. Work on A63G A69G yielded a self-cleavage of 1.04. With G15A A86G the self-cleavage was 1.6. In the case of A94U U127C, the self-cleavage is reported as 1.21. Variant A5G G83A has a self-cleavage of 1.54. Work on A47C U97C yielded a self-cleavage of 0.33. Work on A55G A114U yielded a self-cleavage of 0.02. U39C A98G showed a self-cleavage of 0.98. In the case of G28U A89U, the self-cleavage is reported as 2.26. Work on A5G U57G yielded a self-cleavage of 1.17. U43C A92U gave a self-cleavage of 1.6. A59G U70C showed a self-cleavage of 0.84. For A66G A110C, the self-cleavage was 0.37. Work on A4G A78G yielded a self-cleavage of 0.59. A18U U131C gave a self-cleavage of 0.74. For A13G A96G, the self-cleavage was 0.9. C85U U127C showed a self-cleavage of 0.82. With A5G A56U the self-cleavage was 1.18. For A36U C71U, the self-cleavage was 0.49. Variant A11G A27G has a self-cleavage of 1.1. In the case of A67G A69G, the self-cleavage is reported as 0.77. A116G U133G showed a self-cleavage of 0.82. A24C A52G gave a self-cleavage of 1.55. C34U U131C showed a self-cleavage of 0.84. Work on C42A A110G yielded a self-cleavage of 0.16. C40A U102C gave a self-cleavage of 1.98. A47C A55G gave a self-cleavage of 1.43. Variant A62G A69U has a self-cleavage of 1.87. U131A showed a self-cleavage of 1.05. U131C gave a self-cleavage of 0.71. In the case of C17U A30G, the self-cleavage is reported as 1.03. G138C gave a self-cleavage of 1.73. U122C U127A gave a self-cleavage of 2.22. For U120C U132C, the self-cleavage was 0.85. In the case of A47U G50A, the self-cleavage is reported as 0.26. For U19C U38A, the self-cleavage was 1.46. A33G U37A gave a self-cleavage of 1.02. For A55G A82C, the self-cleavage was 0.16. Variant A110U has a self-cleavage of 1.34. With A60G U130G the self-cleavage was 1.18. Work on U3C A18G yielded a self-cleavage of 1.02. With A54G A118U the self-cleavage was 0.84. Variant A92G U102A has a self-cleavage of 0.61. U43A U131C showed a self-cleavage of 0.91. A68U A126G gave a self-cleavage of 0.6. U43A A111G gave a self-cleavage of 0.03. With U3C C109G the self-cleavage was 0.04. In the case of G14U A56G, the self-cleavage is reported as 1.18. In the case of A67G A117C, the self-cleavage is reported as 0.17. For A67G A117U, the self-cleavage was 0.32. U57C A140U gave a self-cleavage of 1.78. Variant A23G A33U has a self-cleavage of 1.9. A56G A110U gave a self-cleavage of 1.05. Work on A96G G138U yielded a self-cleavage of 1.33. In the case of A52U G99A, the self-cleavage is reported as 0.22. Variant A5U U139C has a self-cleavage of 0.93. Variant U2C U37C has a self-cleavage of 1.26. Work on C34U C76U yielded a self-cleavage of 0.12. A68G A118C showed a self-cleavage of 0.67. Variant G14A A86G has a self-cleavage of 1.02. A91U A114U showed a self-cleavage of 0.14. U39C A51G gave a self-cleavage of 1.5. A22G U43C gave a self-cleavage of 0.78. For A125U C128U, the self-cleavage was 1.62. Variant A59C C113A has a self-cleavage of 0.02. Work on A82G A129G yielded a self-cleavage of 0.47. A94U A111G showed a self-cleavage of 0.02. For A67U A116C, the self-cleavage was 0.1. For A24G A92U, the self-cleavage was 1.45. Variant A64U U87G has a self-cleavage of 0.62. A11C U97C showed a self-cleavage of 1.26. Work on A67C U139C yielded a self-cleavage of 2.18. Variant U97C U130A has a self-cleavage of 0.78. Work on A47G A110G yielded a self-cleavage of 0.1. For U87C C113A, the self-cleavage was 0.01. A18U A118G gave a self-cleavage of 0.6. Variant G1U A33U has a self-cleavage of 1.75. In the case of A126G, the self-cleavage is reported as 0.84. A36G U87A showed a self-cleavage of 2.26. U57C A96G showed a self-cleavage of 1.17. C10A C77U showed a self-cleavage of 1.18. A36G A92C gave a self-cleavage of 2.15. A86C A89G showed a self-cleavage of 1.17. Work on G44A U133C yielded a self-cleavage of 1.78. With G115U A126U the self-cleavage was 0.25. Variant A96G A111G has a self-cleavage of 0.02. A90G A118C showed a self-cleavage of 0.82. In the case of A56U U57C, the self-cleavage is reported as 1.47. Work on C42A A98G yielded a self-cleavage of 0.37. In the case of C77U G80A, the self-cleavage is reported as 0.37. In the case of C107A U122C, the self-cleavage is reported as 0.01. With A90G U103A the self-cleavage was 0.26. U131C G136A showed a self-cleavage of 0.88. For G50A A69G, the self-cleavage was 1.85. Work on G31C U102C yielded a self-cleavage of 1.92. G53U gave a self-cleavage of 1.7. G58U A90G showed a self-cleavage of 1.25. With U100C G123U the self-cleavage was 2.81. C16U U120C showed a self-cleavage of 1.42. Work on A33U U139G yielded a self-cleavage of 2.5. A5G A129G gave a self-cleavage of 0.87. In the case of G41U A51G, the self-cleavage is reported as 1.69. In the case of G21U A59G, the self-cleavage is reported as 1.68. For A27U A114U, the self-cleavage was 0.14. Work on U2G U39C yielded a self-cleavage of 2.03. In the case of U2C C76A, the self-cleavage is reported as 0.1. In the case of U12A A33U, the self-cleavage is reported as 1.4. Variant C46U U102C has a self-cleavage of 1.84. A4U A13G showed a self-cleavage of 1.23. With C35A C121A the self-cleavage was 1.53. With U3C U72A the self-cleavage was 0.17. Variant A22G A135U has a self-cleavage of 1.86. A27G A78U gave a self-cleavage of 0.34. With A11G A129G the self-cleavage was 0.83. With U49C A78U the self-cleavage was 0.37. Work on A24G G123A yielded a self-cleavage of 1.48. A33U A36G gave a self-cleavage of 2.32. Variant A56G C105U has a self-cleavage of 0.12. In the case of A117U U120C, the self-cleavage is reported as 0.83. For A36C A59G, the self-cleavage was 1.68. U108C A126G gave a self-cleavage of 0. Variant U12C U100C has a self-cleavage of 1.4. A69G U72A gave a self-cleavage of 0.19. Work on U39C C128A yielded a self-cleavage of 0.73. For U19C U87A, the self-cleavage was 1.48. Variant G7U A18G has a self-cleavage of 1.68. For A114U U139A, the self-cleavage was 0.07. Work on U2C A4G yielded a self-cleavage of 0.87. For A30U A36G, the self-cleavage was 1.71. Work on G41C A111G yielded a self-cleavage of 0.02. C17U A24U showed a self-cleavage of 1.29. Variant A117G U139C has a self-cleavage of 1.34. In the case of A18G A68G, the self-cleavage is reported as 1.16. In the case of A11G U43G, the self-cleavage is reported as 1.18. In the case of A67G U131C, the self-cleavage is reported as 1.2. For G14A G20A, the self-cleavage was 1.49. For A60C U108A, the self-cleavage was 0.04. With U122A A135U the self-cleavage was 1. A30U U122C gave a self-cleavage of 1.35. With C105U the self-cleavage was 0.16. In the case of A47U G138A, the self-cleavage is reported as 1.61. U9A U100C gave a self-cleavage of 1.68. A96G A114G gave a self-cleavage of 0.44. U19C A56G showed a self-cleavage of 1.29. For U108C A125G, the self-cleavage was 0. Work on A59C U102C yielded a self-cleavage of 1.51. U12C A68G gave a self-cleavage of 1.21. G21U U72A showed a self-cleavage of 0.4. Variant U72A U133C has a self-cleavage of 0.29. Variant A54G A114G has a self-cleavage of 0.4. Variant U57C G137U has a self-cleavage of 2.18. Variant A78U A129G has a self-cleavage of 0.18. For A95G A110C, the self-cleavage was 0.39. U43A U72A showed a self-cleavage of 0.2. For A36G U120G, the self-cleavage was 1.29. A86U U103C gave a self-cleavage of 1.31. U43C A129G gave a self-cleavage of 1.1. With U38C U108A the self-cleavage was 0.03. Variant G15U A69G has a self-cleavage of 1.46. Work on A60G A62U yielded a self-cleavage of 1.51. In the case of A51U A90G, the self-cleavage is reported as 0.91. G44A A89U showed a self-cleavage of 1.59. In the case of U3A A125G, the self-cleavage is reported as 0.39. A36G A63U gave a self-cleavage of 1.91. With U12C U102A the self-cleavage was 1.94. In the case of A22G G74A, the self-cleavage is reported as 0.24. A59U A116U gave a self-cleavage of 0.2.
